Measured values reported in patent US20190343926A1 (priority 2017, published 2019).

Key:
[1] = 35 mU/kg IV every six minutes, ten bursts
[2] = cited from earlier work
[3] = 0.25 mU/kg/min continuous IV insulin infusion; cited from earlier work

For insulin, which “burst at which steady state (Cmax and Cmin bands) is reached” value [1] is on record?
The value was “fourth burst”.

And the “drop in glucose levels” value ([2]; 40 mU/kg IV insulin over 3 minutes, over about 30 minutes)?
Its value is “almost half”.

And the “time for blood insulin to drop from 1000 to 500” value ([2]; 40 mU/kg IV over 3 minutes)?
The value was ~3 min.

What about the “glucose decrease at steady state” value [3] of the same substance?
Its value is “about 25%”.
